The values that follow come from US20240425885.

What all share (test): cleavage_in_vitro
Data set [1] relates to T1, OMNI-123 (metagenomic, unknown).
T1 sequence: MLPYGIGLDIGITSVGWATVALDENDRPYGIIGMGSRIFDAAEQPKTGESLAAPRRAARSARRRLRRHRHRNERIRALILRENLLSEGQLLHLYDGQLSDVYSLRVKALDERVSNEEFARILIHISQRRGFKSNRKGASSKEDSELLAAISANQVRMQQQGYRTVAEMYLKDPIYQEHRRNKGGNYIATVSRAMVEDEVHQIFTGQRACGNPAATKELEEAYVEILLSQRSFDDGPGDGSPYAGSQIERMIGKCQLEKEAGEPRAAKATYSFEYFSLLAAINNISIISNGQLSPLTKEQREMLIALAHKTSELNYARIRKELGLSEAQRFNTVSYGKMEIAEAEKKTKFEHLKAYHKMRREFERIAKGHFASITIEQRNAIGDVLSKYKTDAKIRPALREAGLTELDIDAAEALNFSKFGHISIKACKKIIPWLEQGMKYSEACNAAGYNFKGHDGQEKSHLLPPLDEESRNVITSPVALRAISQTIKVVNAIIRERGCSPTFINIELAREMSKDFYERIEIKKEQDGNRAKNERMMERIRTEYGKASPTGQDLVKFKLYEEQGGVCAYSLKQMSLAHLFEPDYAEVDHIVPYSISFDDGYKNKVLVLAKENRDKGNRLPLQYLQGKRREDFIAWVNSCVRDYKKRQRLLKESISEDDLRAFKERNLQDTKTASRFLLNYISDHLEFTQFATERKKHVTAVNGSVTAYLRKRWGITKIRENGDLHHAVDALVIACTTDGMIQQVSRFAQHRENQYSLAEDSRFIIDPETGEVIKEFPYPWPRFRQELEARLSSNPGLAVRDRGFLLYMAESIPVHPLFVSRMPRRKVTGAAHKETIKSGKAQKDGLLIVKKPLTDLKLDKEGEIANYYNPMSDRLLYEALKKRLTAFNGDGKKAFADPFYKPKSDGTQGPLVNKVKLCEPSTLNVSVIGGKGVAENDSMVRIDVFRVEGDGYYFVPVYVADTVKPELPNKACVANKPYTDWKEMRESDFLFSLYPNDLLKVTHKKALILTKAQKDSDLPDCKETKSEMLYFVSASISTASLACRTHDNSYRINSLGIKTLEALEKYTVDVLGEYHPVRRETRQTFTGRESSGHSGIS
The following applies: TXTL; PAM NNNSGYAA

The test system of data set [2] is T2, OMNI-91 (metagenomic, unknown).
T2 sequence: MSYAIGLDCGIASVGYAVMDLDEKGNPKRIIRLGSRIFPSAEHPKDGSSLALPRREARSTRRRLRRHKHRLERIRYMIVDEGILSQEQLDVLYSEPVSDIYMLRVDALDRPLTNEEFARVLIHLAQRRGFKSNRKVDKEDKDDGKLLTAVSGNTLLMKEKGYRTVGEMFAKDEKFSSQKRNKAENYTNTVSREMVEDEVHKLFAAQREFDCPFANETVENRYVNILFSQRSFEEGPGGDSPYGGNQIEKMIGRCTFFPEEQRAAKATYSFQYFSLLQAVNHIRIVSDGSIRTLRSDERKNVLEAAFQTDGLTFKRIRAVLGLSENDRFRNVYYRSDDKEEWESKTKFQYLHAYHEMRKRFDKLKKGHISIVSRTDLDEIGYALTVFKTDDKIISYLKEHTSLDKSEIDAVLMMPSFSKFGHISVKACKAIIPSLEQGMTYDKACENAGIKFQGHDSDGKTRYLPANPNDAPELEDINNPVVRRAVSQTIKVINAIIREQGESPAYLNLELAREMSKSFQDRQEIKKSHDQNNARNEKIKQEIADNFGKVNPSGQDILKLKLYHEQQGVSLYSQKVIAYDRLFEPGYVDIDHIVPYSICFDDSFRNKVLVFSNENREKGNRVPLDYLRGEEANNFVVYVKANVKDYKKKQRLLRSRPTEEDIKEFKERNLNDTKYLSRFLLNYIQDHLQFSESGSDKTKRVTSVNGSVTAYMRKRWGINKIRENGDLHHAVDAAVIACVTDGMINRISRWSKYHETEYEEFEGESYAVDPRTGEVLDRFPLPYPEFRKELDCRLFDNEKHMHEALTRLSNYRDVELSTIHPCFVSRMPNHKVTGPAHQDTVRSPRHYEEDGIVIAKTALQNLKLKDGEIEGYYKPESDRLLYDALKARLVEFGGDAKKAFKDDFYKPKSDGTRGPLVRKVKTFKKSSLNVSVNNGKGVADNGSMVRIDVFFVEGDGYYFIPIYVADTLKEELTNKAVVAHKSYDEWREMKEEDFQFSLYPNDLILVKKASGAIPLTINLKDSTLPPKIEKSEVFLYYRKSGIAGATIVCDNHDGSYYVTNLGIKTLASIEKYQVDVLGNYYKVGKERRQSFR
The following applies: TXTL; PAM NNGNRTNN

Data set [3] deals with T3, OMNI-125 (metagenomic, unknown).
T3 sequence: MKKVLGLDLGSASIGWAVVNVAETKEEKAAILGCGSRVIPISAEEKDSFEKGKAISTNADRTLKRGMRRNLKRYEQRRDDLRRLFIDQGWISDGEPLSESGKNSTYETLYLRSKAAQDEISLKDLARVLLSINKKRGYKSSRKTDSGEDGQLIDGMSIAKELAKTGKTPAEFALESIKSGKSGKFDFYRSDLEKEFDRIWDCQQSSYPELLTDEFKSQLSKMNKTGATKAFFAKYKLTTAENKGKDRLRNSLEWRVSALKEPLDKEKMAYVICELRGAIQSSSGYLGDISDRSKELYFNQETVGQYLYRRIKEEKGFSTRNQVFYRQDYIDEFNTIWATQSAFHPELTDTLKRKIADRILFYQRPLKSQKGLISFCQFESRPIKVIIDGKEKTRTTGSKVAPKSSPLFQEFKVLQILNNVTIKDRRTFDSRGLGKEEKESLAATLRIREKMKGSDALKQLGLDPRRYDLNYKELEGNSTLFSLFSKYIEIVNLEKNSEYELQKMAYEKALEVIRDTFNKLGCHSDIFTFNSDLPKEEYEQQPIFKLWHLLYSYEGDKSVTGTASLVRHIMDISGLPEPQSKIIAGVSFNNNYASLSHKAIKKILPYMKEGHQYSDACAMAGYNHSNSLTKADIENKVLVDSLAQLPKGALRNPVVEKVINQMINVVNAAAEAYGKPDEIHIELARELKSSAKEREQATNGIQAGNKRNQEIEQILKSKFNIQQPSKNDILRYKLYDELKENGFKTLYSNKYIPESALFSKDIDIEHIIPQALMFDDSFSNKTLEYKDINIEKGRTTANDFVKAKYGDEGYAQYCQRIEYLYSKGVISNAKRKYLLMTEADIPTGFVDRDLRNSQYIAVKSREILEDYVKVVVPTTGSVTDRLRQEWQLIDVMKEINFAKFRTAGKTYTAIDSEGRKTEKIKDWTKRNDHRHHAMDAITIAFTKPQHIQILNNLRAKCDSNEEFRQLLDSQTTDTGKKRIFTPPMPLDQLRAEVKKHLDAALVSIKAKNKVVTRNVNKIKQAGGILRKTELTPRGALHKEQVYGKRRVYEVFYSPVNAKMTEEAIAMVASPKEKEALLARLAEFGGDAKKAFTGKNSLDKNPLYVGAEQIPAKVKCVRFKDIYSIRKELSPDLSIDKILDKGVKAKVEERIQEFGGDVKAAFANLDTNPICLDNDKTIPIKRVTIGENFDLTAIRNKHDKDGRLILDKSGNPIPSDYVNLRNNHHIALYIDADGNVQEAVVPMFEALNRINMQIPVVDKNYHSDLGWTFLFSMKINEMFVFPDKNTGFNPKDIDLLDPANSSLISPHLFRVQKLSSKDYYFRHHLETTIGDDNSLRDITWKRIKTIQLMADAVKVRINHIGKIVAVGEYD
Conditions: TXTL; PAM NARNCCYN

The subject of data set [4] is T4, OMNI-126 (metagenomic, unknown).
T4 sequence: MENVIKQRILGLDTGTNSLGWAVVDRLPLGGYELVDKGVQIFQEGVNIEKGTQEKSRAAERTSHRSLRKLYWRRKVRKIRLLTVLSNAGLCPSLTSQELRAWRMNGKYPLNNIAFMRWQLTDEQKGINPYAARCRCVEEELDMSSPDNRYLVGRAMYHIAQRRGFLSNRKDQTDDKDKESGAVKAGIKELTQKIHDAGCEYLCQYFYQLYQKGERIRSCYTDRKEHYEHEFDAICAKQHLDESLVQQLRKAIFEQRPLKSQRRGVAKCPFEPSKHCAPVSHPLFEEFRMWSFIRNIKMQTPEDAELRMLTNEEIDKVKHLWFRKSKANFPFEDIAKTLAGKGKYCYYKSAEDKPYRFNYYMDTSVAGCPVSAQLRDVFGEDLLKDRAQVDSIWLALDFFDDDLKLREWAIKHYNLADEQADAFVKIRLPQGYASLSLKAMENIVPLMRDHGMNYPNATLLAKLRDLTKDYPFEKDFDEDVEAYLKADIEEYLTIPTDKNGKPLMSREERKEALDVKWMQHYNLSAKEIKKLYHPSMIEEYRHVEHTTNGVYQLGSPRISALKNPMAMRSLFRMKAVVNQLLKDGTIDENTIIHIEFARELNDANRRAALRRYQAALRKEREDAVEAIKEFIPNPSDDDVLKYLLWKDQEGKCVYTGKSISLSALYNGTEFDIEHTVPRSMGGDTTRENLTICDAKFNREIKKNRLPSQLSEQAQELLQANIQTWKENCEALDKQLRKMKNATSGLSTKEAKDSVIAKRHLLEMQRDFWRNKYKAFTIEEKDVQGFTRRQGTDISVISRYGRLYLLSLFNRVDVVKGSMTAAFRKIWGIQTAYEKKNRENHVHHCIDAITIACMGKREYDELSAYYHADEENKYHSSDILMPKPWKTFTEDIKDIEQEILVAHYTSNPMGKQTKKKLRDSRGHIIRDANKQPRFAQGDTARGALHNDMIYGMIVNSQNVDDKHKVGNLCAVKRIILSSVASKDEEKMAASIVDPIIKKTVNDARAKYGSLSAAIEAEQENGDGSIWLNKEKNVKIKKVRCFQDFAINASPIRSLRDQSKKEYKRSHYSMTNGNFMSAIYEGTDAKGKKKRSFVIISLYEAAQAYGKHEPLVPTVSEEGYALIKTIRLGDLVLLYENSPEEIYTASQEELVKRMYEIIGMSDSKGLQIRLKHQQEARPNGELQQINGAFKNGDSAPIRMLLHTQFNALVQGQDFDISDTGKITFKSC
Conditions: TXTL; PAM NNNNAARN

In turn, “GGAAGAGCAGAGCCUUGGUCUCGUUAUAGUUCCCUGAUAGUGAAAACUAUGAGGUUGCUAUAAUAAGGUAGUAAACCGCAGAGCUCUAACGCCUCACAUUUGUGGGGCGUUAUCUCUUUUUUU / GGAAGAGCAGAGCCTTGGTCTCNNNNNNNN / NNNNNNNNGAGACCAAGGCTCTGCTCTTCC [T2 sgRNA 26 V1 ; T2 protospacer + 8N PAM library (pbPOS T2)]” yielded an activity (1-depletion score) in data set [1] of 0.95.
Take “GGAAGAGCAGAGCCUUGGUCUCGUUGUAGUCCCCUCGUAGUGAAAACUAUCAGGUCACUACAAUAAAGUAGAACACUGAAAAGCUCUGACGGCCCACUUUCCGUGGGUCGUCAUCUUUUUU / GGAAGAGCAGAGCCTTGGTCTCNNNNNNNN / NNNNNNNNGAGACCAAGGCTCTGCTCTTCC [T2 sgRNA 2 V1 ; T2 protospacer + 8N PAM library (pbPOS T2)]”: the activity (1-depletion score) in data set [2] amounted to 0.96.
“GGAAGAGCAGAGCCUUGGUCUCGUUGUGAAUGGCUUUCGAAAUUGAAGCCAUUCACAAUAAGGAUUAUUCCGUUGUGAAAACAUUAAGAGCGGGUCGUGAGACUCGCUCUUCUGUGUUUAUUUUUU / GGAAGAGCAGAGCCTTGGTCTCNNNNNNNN / NNNNNNNNGAGACCAAGGCTCTGCTCTTCC [T2 sgRNA 27 V1 ; T2 protospacer + 8N PAM library (pbPOS T2)]”: the activity (1-depletion score) in data set [3] amounted to 0.95.
For “GGAAGAGCAGAGCCUUGGUCUCGUUGUGGCUUGUUGAAGAAGAAAUUCUUCAACUUGUCACAAUAAGGCCCUUAAGGCCGAAGGUUGAAAAACCUAUGGCUCUACUUCGGUGGAGCCUUUUUU / GGAAGAGCAGAGCCTTGGTCTCNNNNNNNN / NNNNNNNNGAGACCAAGGCTCTGCTCTTCC [T2 sgRNA 28 V1 ; T2 protospacer + 8N PAM library (pbPOS T2)]”, the activity (1-depletion score) in data set [4] amounted to 0.64.
